Experimental data: the supplement of paper PMC7877785
± gives the uncertainty stated by the source.

Assay: self-splicing fitness, log relative to wild type (ln ratio); higher = more splicing; Tetrahymena group I intron in knt gene, E. coli kanamycin selection, DiMSum; sequences stand for … in CUCUCU…GGAGGGAAAAGUUAUCAGGCAUGCACCUGGUAGCUAGUCUUUAAACCAAUAGAUUGCAUCGGUUUAAAAGGCAAGACCGUCAAAUUGCGGGAAAGGGGUCAACAGCCGUUCAGUACCAAGUCUCAGGGGAAACUUUGAGAUGGCCUUGCAAAGGGUAUGGUAAUAAGCUGACGGACAUGGUCCUAACCACGCAGCCAAGUCCUAAGUCAACAGAUCUUCUGUUGAUAUGGAUGCAGUUCACAGACUAAAUGUCGGUCGGGGAAGAUGUAUUCUUCUCAUAAGAUAUAGUCGGACCUCUCCUUAAUGGGAGCUAGCGGAUGAAGUGAUGCAACACUGGAGCCGCUGGGAACUAAUUUGUAUGCGAAAGUAUAUUGAUUAGUUUUGGAGUACUCGUGGUCG
Method in brief: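 DiMSum derived fitness as the error-weighted combination of fold changes across replicates, kanamycin versus no kanamycin, normalised to wild type. E. coli BL21(DE3) held the library, which randomised all eight P1ex-region intron nucleotides within the knt kanamycin-resistance gene on pET-22b(+). Six replicate transformations grew overnight at 37°C or 30°C on LB agar with or without 25 μg/mL kanamycin, also containing 100 μg/mL carbenicillin, 50 μM IPTG and 0.2% rhamnose, and pooled colonies were amplicon-sequenced on an Illumina HiSeq 2500.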

| Sequence | self-splicing fitness (ln) (30 °C) | self-splicing fitness (ln) (37 °C) |
| --- | --- | --- |
| AUAGAGCAAUAUUACGCUCA | -0.0598 ± 0.076 | 0.193 ± 0.12 |
| CGAUAGCAAUAUUACGGCCU | -1.67 ± 0.19 | -0.545 ± 0.2 |
| UCAGAGCAAUAUUACGUGAC | -3.69 ± 0.28 | -1.9 ± 0.23 |
| UUCAAGCAAUAUUACGUGUG | -1.25 ± 0.056 | -0.551 ± 0.07 |
| UAACAGCAAUAUUACGGACU | -1.02 ± 0.064 | -0.504 ± 0.089 |
| UAUAAGCAAUAUUACGCUCA | -0.3 ± 0.14 | 0.688 ± 0.21 |
| CGUCAGCAAUAUUACGCAUA | -2.88 ± 0.32 | -2.59 ± 0.19 |
| UACUAGCAAUAUUACGCUGU | -4.54 ± 0.28 | -3.27 ± 0.33 |
| GGCGAGCAAUAUUACGCAAC | -0.841 ± 0.36 | -0.673 ± 0.27 |
| UGAAAGCAAUAUUACGUUUG | -2.94 ± 0.13 | -0.682 ± 0.11 |
| GACGAGCAAUAUUACGGGAA | -3.41 ± 0.31 | -2.34 ± 0.19 |
| CGCAAGCAAUAUUACGUCUU | -4.05 ± 0.26 | -3.12 ± 0.22 |
| CCGUAGCAAUAUUACGUUAG | -2.22 ± 0.14 | -0.971 ± 0.14 |
| CCCGAGCAAUAUUACGACUA | -2.29 ± 0.36 | – |
| GAUCAGCAAUAUUACGUUAU | -1.46 ± 0.07 | -0.207 ± 0.092 |
| CUAGAGCAAUAUUACGAGCG | 0.131 ± 0.1 | 0.74 ± 0.12 |
| GGUUAGCAAUAUUACGUACU | -1.22 ± 0.24 | -1.27 ± 0.32 |
| AAAGAGCAAUAUUACGUACA | -3.37 ± 0.28 | -1.71 ± 0.23 |
| AUUCAGCAAUAUUACGAUCU | -0.272 ± 0.057 | 0.457 ± 0.078 |
| ACAUAGCAAUAUUACGAGCG | -0.74 ± 0.12 | -0.0992 ± 0.12 |
| GAUAAGCAAUAUUACGUAAG | -2.38 ± 0.088 | -0.896 ± 0.11 |
| UGGAAGCAAUAUUACGCGGU | -2.87 ± 0.17 | -2.69 ± 0.2 |
| ACAGAGCAAUAUUACGUGCA | -3.73 ± 0.29 | -1.57 ± 0.25 |
| GGUUAGCAAUAUUACGAAAA | -2.05 ± 0.41 | 0.949 ± 0.28 |
| GAUCAGCAAUAUUACGGAUA | -0.42 ± 0.067 | 0.0803 ± 0.077 |

| Sequence | self-splicing fitness (ln) (30 °C) | self-splicing fitness (ln) (37 °C) |
| --- | --- | --- |
| AAUAAGCAAUAUUACGGCGG | -0.94 ± 0.093 | -0.865 ± 0.1 |
| GGGAAGCAAUAUUACGCGUC | -3.64 ± 0.3 | -2.86 ± 0.47 |
| CUCGAGCAAUAUUACGUUAU | -3.99 ± 0.36 | -2.72 ± 0.3 |
| CCUGAGCAAUAUUACGCACU | -4.16 ± 0.3 | -2.8 ± 0.24 |
| AGGUAGCAAUAUUACGAUUA | -0.677 ± 0.016 | -0.383 ± 0.033 |
| AUCGAGCAAUAUUACGCCUA | – | -2.39 ± 0.32 |
| GUUCAGCAAUAUUACGCUUU | -0.726 ± 0.088 | 0.0124 ± 0.11 |
| UCAUAGCAAUAUUACGUCAU | -2.74 ± 0.29 | -3.16 ± 0.27 |
| AUCUAGCAAUAUUACGCGUG | -1.23 ± 0.1 | -1.01 ± 0.12 |
| CUCUAGCAAUAUUACGUGGA | -3.43 ± 0.25 | -2.17 ± 0.19 |
| GAUUAGCAAUAUUACGGGCC | -1.66 ± 0.32 | -2.01 ± 0.47 |
| CCAUAGCAAUAUUACGACGU | -3.3 ± 0.35 | -2.13 ± 0.23 |
| ACUUAGCAAUAUUACGGCGC | -0.406 ± 0.11 | 0.119 ± 0.15 |
| AUUGAGCAAUAUUACGCCGU | – | -2.56 ± 0.49 |
| CGAAAGCAAUAUUACGAGGU | – | -1.64 ± 0.3 |
| UCCAAGCAAUAUUACGCAUG | -4.8 ± 0.31 | -2.27 ± 0.19 |
| GGCGAGCAAUAUUACGAGGA | -3.43 ± 0.43 | -2.43 ± 0.25 |
| UCGGAGCAAUAUUACGACAU | -3.91 ± 0.041 | -2.98 ± 0.052 |
| UAGUAGCAAUAUUACGUUCU | -1.88 ± 0.12 | -0.844 ± 0.098 |
| AAACAGCAAUAUUACGCCCG | -1.35 ± 0.27 | -0.868 ± 0.32 |
| AUGAAGCAAUAUUACGUCGA | -0.936 ± 0.1 | 0.22 ± 0.097 |
| GGAGAGCAAUAUUACGUCAA | -2.93 ± 0.31 | -3.54 ± 0.46 |
| CGCUAGCAAUAUUACGAAGU | -3.12 ± 0.22 | -2.28 ± 0.31 |
| UGAUAGCAAUAUUACGUAGA | -2.3 ± 0.15 | -0.984 ± 0.17 |
| AGAAAGCAAUAUUACGACGA | -0.322 ± 0.13 | 0.0397 ± 0.12 |

| Sequence | self-splicing fitness (ln) (30 °C) | self-splicing fitness (ln) (37 °C) |
| --- | --- | --- |
| GCUCAGCAAUAUUACGCUUA | -1.4 ± 0.054 | -0.165 ± 0.06 |
| AUAGAGCAAUAUUACGAAAU | -0.572 ± 0.1 | 0.0653 ± 0.13 |
| AUAUAGCAAUAUUACGAGAU | -3.01 ± 0.14 | -0.91 ± 0.13 |
| GGAUAGCAAUAUUACGCGUU | -1.98 ± 0.42 | -2.06 ± 0.47 |
| GAUCAGCAAUAUUACGUCGU | -0.403 ± 0.079 | -0.669 ± 0.1 |
| CAGCAGCAAUAUUACGAAAA | -2.36 ± 0.2 | -2.26 ± 0.28 |
| GAGGAGCAAUAUUACGCAGA | -3.91 ± 0.34 | -2.86 ± 0.32 |
| AUUGAGCAAUAUUACGGGUG | -4.2 ± 0.28 | -2.2 ± 0.3 |
| GAUCAGCAAUAUUACGUAAA | -0.582 ± 0.079 | 0.169 ± 0.099 |
| GUGAAGCAAUAUUACGUGUU | -2.74 ± 0.1 | -1.23 ± 0.085 |
| AAUAAGCAAUAUUACGUAGU | -3.14 ± 0.15 | -2.15 ± 0.19 |
| UUGGAGCAAUAUUACGACGG | 0.664 ± 0.22 | -0.775 ± 0.29 |
| AACAAGCAAUAUUACGAUGA | -0.584 ± 0.072 | -0.801 ± 0.073 |
| ACAUAGCAAUAUUACGUCAC | -3.32 ± 0.18 | -2.93 ± 0.28 |
| AUGGAGCAAUAUUACGUAAC | -2.91 ± 0.34 | -2.29 ± 0.46 |
| GAGGAGCAAUAUUACGUUCA | -1.18 ± 0.081 | -0.275 ± 0.11 |
| UCGUAGCAAUAUUACGAUGG | -1.88 ± 0.12 | -1.07 ± 0.14 |
| CAGCAGCAAUAUUACGUCUC | -1.15 ± 0.064 | -0.898 ± 0.075 |
| AUUAAGCAAUAUUACGUUCC | -3.07 ± 0.29 | -0.839 ± 0.27 |
| GGAAAGCAAUAUUACGGUUG | – | -1.2 ± 0.26 |
| CCGGAGCAAUAUUACGGUCC | -1.43 ± 0.23 | – |
| CCGGAGCAAUAUUACGCGAG | -2.87 ± 0.3 | -1.79 ± 0.27 |
| GGUCAGCAAUAUUACGGUCA | -0.669 ± 0.13 | 0.518 ± 0.13 |
| UAGGAGCAAUAUUACGUUUG | -3.19 ± 0.2 | -1.25 ± 0.22 |
| AGGCAGCAAUAUUACGCAGU | -3.36 ± 0.2 | -1.55 ± 0.19 |

| Sequence | self-splicing fitness (ln) (30 °C) | self-splicing fitness (ln) (37 °C) |
| --- | --- | --- |
| GGUUAGCAAUAUUACGCGUA | -0.642 ± 0.091 | -0.174 ± 0.083 |
| CUUCAGCAAUAUUACGUGCG | -2.43 ± 0.09 | -0.814 ± 0.099 |
| CCCGAGCAAUAUUACGCAUC | -2 ± 0.15 | -1.45 ± 0.2 |
| UUGAAGCAAUAUUACGCUUG | -1.02 ± 0.064 | -0.679 ± 0.087 |
| CCAAAGCAAUAUUACGACUU | -3.77 ± 0.16 | -3.01 ± 0.2 |
| AAAAAGCAAUAUUACGUAAU | -1.4 ± 0.063 | -0.916 ± 0.085 |
| GGAAAGCAAUAUUACGUAGA | -0.977 ± 0.1 | -1.4 ± 0.17 |
| GCCUAGCAAUAUUACGGCCU | -2.48 ± 0.18 | -1.33 ± 0.24 |
| GGCGAGCAAUAUUACGUUCA | -0.77 ± 0.1 | 0.0965 ± 0.13 |
| AUCUAGCAAUAUUACGGUAG | -3.92 ± 0.28 | -2.13 ± 0.22 |
| GGAAAGCAAUAUUACGGGUU | -2.99 ± 0.13 | -0.727 ± 0.11 |
| UGCUAGCAAUAUUACGUUAG | -3.08 ± 0.19 | -3.02 ± 0.33 |
| UGCUAGCAAUAUUACGCGUA | -0.838 ± 0.11 | -0.531 ± 0.1 |
| UCGCAGCAAUAUUACGCCUA | -1.21 ± 0.13 | 0.0885 ± 0.14 |
| UGACAGCAAUAUUACGAGUG | -1.09 ± 0.054 | -0.833 ± 0.077 |
| CAGCAGCAAUAUUACGAGAG | -2.38 ± 0.083 | -1.81 ± 0.089 |
| CAUGAGCAAUAUUACGAGUG | -2.67 ± 0.13 | -3 ± 0.21 |
| AAUCAGCAAUAUUACGAAGG | -1.16 ± 0.071 | -0.793 ± 0.099 |
| CAGGAGCAAUAUUACGCGAA | -1.4 ± 0.17 | -2.07 ± 0.23 |
| AAUUAGCAAUAUUACGGGUU | -1.4 ± 0.12 | -0.955 ± 0.12 |
| UAUGAGCAAUAUUACGCGGC | -4.02 ± 0.29 | -1.8 ± 0.25 |
| ACUAAGCAAUAUUACGAAAG | -1.76 ± 0.14 | -1.55 ± 0.16 |
